Patent US20250206839A1, “METHODS, COMPOSITIONS AND USES FOR SEMA7A MONOCLONAL ANTIBODIES” (THE REGENTS OF THE UNIVERSITY OF COLORADO, A BODY CORPORATE, priority 2022, published 2025)
“Also recorded” adds a separate entry of the source.

Legend:
[1] = system: SEMA7A OE E0771 mouse mammary carcinoma cells; test: E0771 SEMA7A OE mouse mammary carcinoma model, in vivo antibody treatment; settings: SmAbH1 alone
Protocol: For initial in vivo studies with SmABHI. SEMA7A OE E0771 mouse mammary carcinoma cells were injected into mice. Twenty days after carcinoma cells were injected. SmAbH1 (e.g., 12 ug) was administered intraperitoneally to the mice every three days until day 36 post-carcinoma cell injection. Tissues were collected at day 36. Tumors, lungs, and LNs were harvested and processed for IHC and flow cytometry to determine the effect of SEMA7A mAb therapy on cells of the tumor microenvironment (TME). In an additional experiment, tumors were treated at day 28 post-injection with a novel SEMA7A directed antibody, monoclonal antibody clone H1. Fully regressed tumors were removed from treatment at day 50) and the animals were re-challenged with an additional tumor inoculation at day 90 to assess SEMA7A mAb effects. Finally, to examine changes in immune cells in the tumor microenvironment, tumors were treated at day 13 post-inoculation and harvested at day 18. During this time period, tumors were actively regressing (FIGS. 2A-2C).
E0771 model: Female C57/BL6 mice were injected orthotopically into the left and right #4 mammary fat pads with 200,000 E0771 SEMA7A OE mouse mammary carcinoma cells. Tumors were measured every day once tumors became palpable (3 days post injection). […]

[2] = system: MCF7 cells; test: Cell viability, crystal violet, 48 h; format: cell-based, human; settings: MCF7, 500 nM SmAbH1 vs 8 nM Fulvestrant
Protocol: (§1) For proliferation assays, cells were plated at 2000 cells per well of a 96-well dish. Four pictures of different regions in each well were taken every four hours for 48 h using an IncuCyte ZOOM (Essen BioScience, Ann Arbor, MI, USA). Percent confluence was determined using the IncuCyte ZOOM software (Essen BioScience). 66cl4 Sema7A DDK cells were plated in a 96-well plate in triplicate at 1,500 cells/well. They sat down over 24 hours and then were treated with 1000 nM IgG control, 10 nM SmAbH1, 100 nM SmAbH1, 200 nM SmAbH1, 500 nM SmAbH1, or 1000 nM SmAbH1. The plate was promptly transferred to the IncuCyte where photos were taken and analyzed every 4 hours for 7 days. For additional treatment studies in MCF7, TC11 and SSM2 cells ([…]) were plated in a 24-well plate in complete media and allowed to sit down over 24 hours. At 24 hours after plating, cells were treated with 500 nM IgG control, 500 nM SmAbH1, 8 nM Fulvestrant or the combination. The plate was incubated at 37 C for 48 hours, then fixed with 10% NBF and stained with crystal violet.

[3] = system: 66cl4 Sema7A DDK cells; test: IncuCyte percent confluence time course; format: cell-based, mouse
Protocol: as §1

[4] = system: human breast cancer MCF7A SEMA7A overexpressing cells; test: Immunofluorescence labeling of TAPI-1 treated SEMA7A overexpressing cells; format: cell-based; settings: antibody 250:1, FITC secondary, cells treated with TAPI-1
Protocol: In another exemplary method, the ability of anti-SEMA7A monoclonal antibodies to bind and label cells was tested. In an exemplary method, human breast cancer MCF7A SEMA7A overexpressing cells were treated with TAPI-1, a TACE/ADAM17 inhibitor that blocks SEMA7A shedding from the cell surface, and then incubated with an anti-SEMA7A monoclonal antibody (250:1) before visualization with a FITC secondary antibody (1000:1).
Cells were fixed with 2% PFA or 1:1 acetone-methanol for 30 minutes at 4C, before washing once with PBS and blocking with 1% BSA in PBST for 1 hour at room temperature. After removal of the blocking solution, cells were incubated in primary antibody in 1% BSA in PBST overnight at 4° C. The primary antibody (SmAbH1 (lot 022823) was prepared at a 1:250 concentration by adding 4 μL stock solution to ImL 1% BSA in PBS. After primary removal cells were washed with PBS for 10 min×3 and incubated in secondary antibody in 1% BSA in PBS for 1-2 hours at room temperature (covered from light). The secondary antibody (Donkey anti-Mouse IgG Alexa Fluor 488 (Invitrogen A-21202)) was prepared at 1:1000 concentration by adding 1 μL into ImL 1% BSA in PBS. After removal of secondary antibody cells were washed with PBS for 10 min×3. VECTASHIELD Antifade Mounting Medium with DAPI (Vector Labs H-1200-10) was added and the cells were sealed with a glass coverslip. […]

[5] = system: pNFκB in MDA231 cells; test: Western blot for phosphorylation of NFκB; format: cell-based, human; settings: MDA231, high SEMA7A
Protocol: (§2) In another exemplary method, the ability of the anti-SEMA7A monoclonal antibodies to affect cellular processes related to cell survival was tested. In one exemplary method, human triple negative breast cancer cell lines with low (MDA468) or high (MDA231) levels of SEMA7A were treated with SmAbH1 (CUH1) or commercially available monoclonal antibody-based inhibitors of an integrin receptor for SEMA7A (α6β1) and then evaluated using Western blot for phosphorylation of NFκB (pNFκB), a key survival marker.

[6] = system: pNFκB in MDA468 cells; test: Western blot for phosphorylation of NFκB; format: cell-based, human; settings: MDA468, low SEMA7A
Protocol: as §2

[7] = system: SEMA7A isoforms; test: Western blot recognition of SEMA7A isoforms; format: binding

B1: SmAbH1: mouse monoclonal antibody against SEMA7A generated using the 10-mer immunizing peptide … (SEQ ID NO: 2) (antibody, V domains shown)
VH: QVKLQESGTVLARPGASVKMSCKASVYSFTSYWMHWVKQRPGQGLEWIGAIYPGNSDTSYNQKFKGKAKLTAVTSASTAYMELSSLTNEDSAVYYCTRGGAPTMITAYYAMDYWGQGTSVTVSS
VL: DIQMTQTTSSLSASLGDRVTISCRASQDISNYLNWYQQKPDGTVKLLIYYTSRLHSGVPSRFSGSGSGTDYSLTISNLEQEDIATYFCQQGNTLPWTFGGGTKLEIKR
B1 was tested, and the “tumor growth and metastasis compared to anti-PD-L1 and the combination” value [1] was “superior at reducing both tumor growth and metastasis”, the “cell viability compared to fulvestrant” value [2] was “more significantly reduced” and the “viability / percent confluence over time” value ([3]; 66cl4, 10-1000 nM SmAbH1, 7 days) was “decreased viability; also recorded: dose dependency”. The “decrease of cellular confluence compared to commercially available SEMA7A directed antibodies” value ([3]; 66cl4 DDK and DDK SEMA7A cells, vs SC-374432 and Ab23578) was “greater than commercially available”, the labeling of cells [4] was “labeled the cell lines treated with TAPI-I” and the “downstream NFκB activation (pNFκB levels)” value [5] was “blocked downstream NFκB activation; also recorded: the effect was stronger”. For the same molecule, the “downstream NFκB activation (pNFκB levels)” value [6] was “blocked downstream NFκB activation” and the “recognition of SEMA7A isoforms” value [7] was “recognition of all three isoforms of SEMATA”.
